These binders were tested against HLA-A24 molecule (the product of HLA-A*2402 gene) (human).

First: ALHQVFGAI (modifications not checked) [SEQ ID NO 19]
Second: HWPKSHTLW (modifications not checked) [SEQ ID NO 7]
The -log Kd of the first is lower: 6.05 -log Kd for the first, 8.66 -log Kd for the second.

Going from ALVAFLRFL (modifications not checked) [SEQ ID NO 21] to AFSGVSWTM (modifications not checked) [SEQ ID NO 2], the -log Kd rises from 5.68 -log Kd to 8.19 -log Kd.

First: YMPSVIEKM (modifications not checked) [SEQ ID NO 15]
Second: IQKETLVTF (modifications not checked) [SEQ ID NO 18]
The -log Kd of the first is lower: 7.17 -log Kd for the first, 7.24 -log Kd for the second.

Compared with PFPQSNAPI (modifications not checked) [SEQ ID NO 5], DWIPLALTI (modifications not checked) [SEQ ID NO 25] is lower in -log Kd: 8.22 -log Kd for the first, 8 -log Kd for the second.

First: PMSTYGWNL (modifications not checked) [SEQ ID NO 22]
Second: ALSELPETL (modifications not checked) [SEQ ID NO 12]
The -log Kd of the first is higher: 7.62 -log Kd for the first, 5.5 -log Kd for the second.

Going from KLMKITAEW (modifications not checked) [SEQ ID NO 16] to AWLVHRQWF (modifications not checked) [SEQ ID NO 10], the -log Kd rises from 7.21 -log Kd to 8.39 -log Kd.

Compared with WYAQIQPHW (modifications not checked) [SEQ ID NO 1], GLNPTAIFL (modifications not checked) [SEQ ID NO 8] is lower in -log Kd: 8.64 -log Kd for the first, 6.39 -log Kd for the second.

First: TLYAVATTF (modifications not checked) [SEQ ID NO 11]
Second: ELPETLETL (modifications not checked) [SEQ ID NO 9]
The -log Kd of the first is higher: 7.58 -log Kd for the first, 7.01 -log Kd for the second.

Going from AYNHALSEL (modifications not checked) [SEQ ID NO 23] to GFLNEDHWF (modifications not checked) [SEQ ID NO 20], the -log Kd falls from 7.68 -log Kd to 6.76 -log Kd.

The binders below were run against HLA-A2 molecule (the product of HLA-A*0201 gene) (human).

Compared with IVLEHGSCV (modifications not checked) [SEQ ID NO 27], ILIRTGLLV (modifications not checked) [SEQ ID NO 33] is higher in -log Kd: 5.74 -log Kd for the first, 6.53 -log Kd for the second.

Going from YMPSVIEKM (modifications not checked) [SEQ ID NO 15] to ALHQVFGAI (modifications not checked) [SEQ ID NO 38], the -log Kd rises from 6.58 -log Kd to 6.77 -log Kd.

First: FLIDGPETA (modifications not checked) [SEQ ID NO 35]
Second: RLITVNPIV (modifications not checked) [SEQ ID NO 31]
The -log Kd of the first is higher: 6.05 -log Kd for the first, 5.64 -log Kd for the second.

First: ALSELPETL (modifications not checked) [SEQ ID NO 12]
Second: NLVRLQSGV (modifications not checked) [SEQ ID NO 30]
The -log Kd of the first is higher: 6.05 -log Kd for the first, 4.7 -log Kd for the second.

Going from SLRPQPTEL (modifications not checked) [SEQ ID NO 34] to PLNEAIMAV (modifications not checked) [SEQ ID NO 29], the -log Kd rises from 5.05 -log Kd to 6.49 -log Kd.

Going from ELPETLETL (modifications not checked) [SEQ ID NO 9] to FQPESPSKL (modifications not checked) [SEQ ID NO 36], the -log Kd falls from 6.32 -log Kd to 6.31 -log Kd.

Each binder was assayed against HLA-A2 molecule (the product of HLA-A*0206 gene) (human).

First: LALLAAFKV (modifications not checked) [SEQ ID NO 43]
Second: IVLEHGSCV (modifications not checked) [SEQ ID NO 27]
The -log Kd of the first is higher: 6.47 -log Kd for the first, 6.02 -log Kd for the second.

First: RTLRVLNLV (modifications not checked) [SEQ ID NO 49]
Second: LVISGLFPV (modifications not checked) [SEQ ID NO 41]
The -log Kd of the first is lower: 5.97 -log Kd for the first, 6.61 -log Kd for the second.

Compared with YVVIAILTV (modifications not checked) [SEQ ID NO 47], QILEENVEV (modifications not checked) [SEQ ID NO 50] is lower in -log Kd: 5.86 -log Kd for the first, 5.61 -log Kd for the second.

First: SVIEKMEAL (modifications not checked) [SEQ ID NO 48]
Second: HVLGRLITV (modifications not checked) [SEQ ID NO 45]
The -log Kd of the first is higher: 6.37 -log Kd for the first, 6.25 -log Kd for the second.

From US20100144025A1
